Measurements: patent US20210213134A1, “THIOL-BASED MULTIVALENT DRUG DELIVERY COMPOSITIONS” (ORPRO THERAPEUTICS, INC., priority 2018, published 2021)
Where a chain is given by its changes, count along the chain named. Entries after “also recorded” stand apart in the source; their conditions may differ.

B1: C35STRX: monocysteinic active site Cys32-Ser35 variant of human thioredoxin-1, mucus-targeting scaffold (protein)
chain: MVKQIESKTAFQEALDAAGDKLVVVDFSATWCGPSKMIKPFFHSLSEKYSNVIFLEVDVDDCQDVASECEVKCMPTFQFFKKGQKVGEFSGANKEKLEATINELV
B2: Oxidized (inactive) C35STRX: oxidized, inactive form of C35STRX used as control (protein)
chain: B1 chain
B3: biotinylated C35STRX (conjugate)
chain: B1 chain
B4: TRX: endogenously secreted human epithelial protein thioredoxin-1, small (12 kDa) redox enzyme (protein)
chain: B1 chain with S35C
B5: Azido-C35STRX (conjugate, UniProt P10599 2-105, looked up, variant C35S)
Thioredoxin: VKQIESKTAFQEALDAAGDKLVVVDFSATWCGPSKMIKPFFHSLSEKYSNVIFLEVDVDDCQDVASECEVKCMPTFQFFKKGQKVGEFSGANKEKLEATINELV
modifications: azido group

What was measured:
[1] = test system: extracellular airway mucus; assay: immunohistochemical detection of thioredoxin after IT delivery to rat airways; type: in vivo; conditions: intratracheal (IT) delivery, IHC
Excerpt: FIG. 4 Immunohistochemical detection of thioredoxin following IT delivery to rat airways via Penn-Century micro-sprayer. […] Animals were sacrificed 4 hr post-dose and excised lungs fixed, sectioned and analyzed by IHC for immunodetection of thioredoxin.
Conversion of the thioredoxin active site to a monothiol allows thioredoxin homologue protein to remain covalently attached to targeted disulfides once it has reacted. […] Reduced thioredoxin homologue protein can remain bound to extracellular airway mucus for at least 4 hours following intratracheal (IT) delivery to normal rats with normal mucus as visualized by immunohistochemical detection (brown staining; FIG. 4, Top) using anti-human thioredoxin antisera. […] While time points later than 4 hours were not included in this study, normalization of mucociliary transport in human airway mucus on epithelia for up to 24 hours is observed confirming similar residence time/mucin binding duration for mucoadhesive conjugates.
Conversion of the thioredoxin active site to a reduced Cys32 monothiol allows thioredoxin variants to remain covalently attached to targeted disulfides once reacted. […]

[2] = test system: human airway mucus on epithelia; assay: normalization of mucociliary transport in human airway mucus on epithelia; type: cell-based
[3] = test system: rats; assay: acute aerosol toxicity (nebulizer); type: in vivo
[4] = DTNB assay (percent reduction state, free sulfhydryl); type: physicochemical; conditions: Table 1
Protocol: C35STRX-antibiotic conjugates are dissolved in PBS to the original volume before lyophilization and assayed for stability over seven days in comparison to non-conjugated reduced C35STRX. C35STRX-antibiotic conjugate concentration is measured by BCA protein assay (Pierce). […] Degradation/aggregation of C35STRX-antibiotic conjugates is determined by the percentage of C35STRX-antibiotic conjugate monomers assayed by SEC using an Agilent 1100 HPLC system and a BioBasic SEC-300 250×4.6 column (ThermoScientific) with a 40 mM Na acetate, 450 mM Na chloride 2 mM EDTA (pH 5.5) buffer at a flow rate 0.350 mL/min and detection by absorbance at 280 nm (A280).
Codon-optimized synthetic oligonucleotides encoding Lys to Ala mutants of C35STRX cloned into vector pD861 (Atum, Newark, Calif.) are expressed solubly in BL21 ΔrhaB E. coli under rhamnose induction (0.1% w/v, 26 deg C.) in APF-LB medium with 0.05% w/v glucose substrate at an O.D.600 of 0.8 in 2.8 L Fernbach shake flasks at NRC (Montreal Canada). Following cell pellet lysis (EmulsiFlex-C3, Avestin, Ottawa Canada) protein is purified from clarified extracts using anion exchange chromatography (FPLC, Akta) and 5 kDa ultrafiltration/diafiltration (UF/DF). […] Physical characterization: C35S(KA)TRX concentration is measured by BCA Protein assay (Pierce).

[5] = test system: rat; conditions: in vivo
[6] = test system: mice; conditions: mouse, in vivo
[7] = test system: human primary bronchial epithelia from CF and normal donors; type: cell-based
[8] = test system: target proteins; assay: disulfide linkage to target proteins in vitro by HPLC and gel-shift; type: binding
[9] = molecular target: T1, insulin disulfides (heterodimeric insulin) (Homo sapiens, UniProt P01308); assay: single-turnover insulin protein disulfide reduction assay (RP-HPLC of insulin heterodimer peak); type: biochemical; design: % reduction: concentration or dose not given beside the values; conditions: for % reduction / insulin heterodimer peak (RP-HPLC): pH 8
T1 construct: fully disulfide-bonded heterodimeric insulin
T1 sequence (P01308 25-54 limits assumed): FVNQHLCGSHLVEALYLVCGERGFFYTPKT
T1 sequence (P01308 90-110 limits assumed): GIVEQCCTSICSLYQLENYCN
Protocol: Left side of FIG. 1—polyacrylamide gel electrophoresis of native human thioredoxin-1 (TRX). Lane 1: Molecular weight standards; Lane 2: Oxidized TRX; Lane 3: Oxidized TRX following reaction with dithiothreitol (DTT); Lane 4: Oxidized TRX following reaction with reduced glutathione (GSH); Lane 5: Oxidized TRX following reaction with GSH followed by DTT. Right side of FIG. 1—TRX was oxidized by exposure to ambient air for one week then incubated with either DTT or GSH at pH 8 for 1 hour followed by purification over a size exclusion column to remove unreacted free DTT or GSH after which the TRX was collected and used in a single-turnover insulin protein-disulfide reduction assay. Oxidized TRX (bottom line), TRX reduced with DTT (top line) or TRX reduced with GSH (middle line) were incubated with fully disulfide-bonded heterodimeric insulin at pH 8. After 30 min, 60 min and 120 minutes aliquots were taken and diluted with 0.1% TFA and 17 uM (final) iodoacetic acid and analyzed over RP-HPLC. Absorbance was monitored at 214 nm and the peak area of the insulin heterodimer fraction was determined at each time point to quantify TRX protein disulfide-reducing activity.
C35STRX was oxidized and Lys residues were conjugated to an azido-PEG linker. The conjugated material was then reduced and tested for molecular weight using SDS-PAGE (FIG. 5D) and MALDI-TOF (FIG. 5E) and activity assessed using a single-turnover insulin protein disulfide reduction assay. From the gel and MALDI-TOF results there is no free C35STRX; however, the conjugated material retained about 33% of its activity in the insulin assay as compared to unreacted reduced C35STRX. See FIGS. 5A-5E and their descriptions above.
Insulin Activity Assay with C35STRX and Azido-C35STRX: C35STRX OD280 was 11.8, corresponding to a concentration of 1.69 mM. C35STRX a OD280 was 15, corresponding to a concentration of 2.14 mM. Azido-C35STRX OD280 was 4.0, corresponding to a concentration of 0.57 mM. pH 8 Insulin stock: […] of Tris pH8 and 572 µL H2O and 25 µL of insulin (10 mg/mL) and 10 µL of 0.5 M EDTA. C35STRX stock was 0.5 mM. Azido-C35STRX stock was 0.5 mM concentration.
The reaction was stopped by addition of 10 µL of 1 M iodoacetic acid and 400 µL of 0.1% TFA. Samples were analyzed by RP-HPLC for changes in the insulin heterodimer peak.

[10] = test system: porcine gastric mucin; assay: mucin binding direct ELISA; conditions: reduced biotinylated conjugate, various mucin concentrations
Protocol: To establish the feasibility of covalently binding conjugated monocysteinic active site Cys32-Ser35 thioredoxin (C35STRX) to mucins, conjugation of C35STRX via its N-terminal NH2 to a model payload (biotin) using EZ-Link™ Sulfo-NHS-SS-Biotin (ThermoFisher) was carried out. Dithiothreitol (DTT, 0.1 M) was used to generate active C35STRX conjugates by reduction of the C35STRX active site Cys. Following DTT removal (NAPS column, GE Healthcare), the mucin binding ability of reduced biotinylated 0.02 C35STRX was evaluated by direct ELISA using 96 well plates 0 (Costar 3370) coated with 100 μl of various concentrations of porcine gastric mucin (Sigma) in 100 mM Tris-HCl buffer (pH 9). 100 μL of biotinylated C35STRX in 50 mM Tris (pH 8) and 1 mM EDTA was then added and incubated for 2 hours, with washes performed between each step. 50 μL of avidin-horseradish peroxidase (HRP) was added and incubated for 30 min followed by 50 μL of tetramethylbenzidine (TMB) substrate. Reactions were stopped after 5 min with 100 μl 1N sulfuric acid. Absorbance at […] (Molecular Devices SpectraMax i3) was plotted against mucin concentration.

[11] = literature values; cited from earlier work

Molecule	% reduced [4]	% reduction ([9]; Table 3, 0 min)	insulin heterodimer peak (RP-HPLC) ([9]; Table 3, 0 min)	% reduction ([9]; Table 3, 90 min)	insulin heterodimer peak (RP-HPLC) ([9]; Table 3, 90 min)	% reduction ([9]; Table 4, 0 min)	insulin heterodimer peak (RP-HPLC) ([9]; Table 4, 0 min)	% reduction ([9]; Table 4, 90 min)	insulin heterodimer peak (RP-HPLC) ([9]; Table 4, 90 min)	further results
B1	109.4%	0%	8515.4	99.40%	50.2	0%	10602	97.70%	243.2	time remaining bound to extracellular airway mucus ([1]; normal rats): at least 4 hours; duration of normalization of mucociliary transport [2]: up to 24 hours; toxic effects in normal animals treated by aerosol ([3]; normal animals, aerosol, high dose levels): lack of observed toxic effects; local or systemic toxicity, histopathology ([3]; rats dosed acutely, aerosol via nebulizer, highest delivered concentration 40 mg/kg): No local or systemic toxicity or histopathological anomalies; adverse inflammatory effects in lavage fluid [5]: No adverse inflammatory effects; adverse inflammatory effects in lavage fluid [6]: No adverse inflammatory effects; adverse inflammatory effects in vitro [7]: No adverse inflammatory effects; disulfide linkage to target proteins [8]: stable disulfide linkages to target proteins
B2	–	–	–	–	–	–	–	–	–	binding to mucus or the epithelial surface ([1]; rats, 4 hr post-dose): did not bind mucus or the epithelial surface
B3	–	–	–	–	–	–	–	–	–	mucin binding [10]: bind mucin in a dose-dependent fashion; also recorded: maintained full mucin binding activity with linear kinetics
B4	–	–	–	–	–	–	–	–	–	pKa of catalytic Cys thiol [11]: 6.2
B5	106.6%	0%	8959.8	32.69%	6030.6	0%	10213	33.07%	6835	activity retained in the insulin assay as compared to unreacted reduced C35STRX ([9]; up to 11 azido-PEG linkers on Lys): about 33%
